# In article PMC12313893, “Queuosine is incorporated into precursor tRNA before splicing”:
# Experiments:
# [1] = target: T1, QTRT1 (catalytic subunit of TGT);QTRT2 (accessory subunit of TGT) (Mus musculus;Mus musculus, UniProt Q9JMA2;B8ZXI1 1-403;1-415, |); experiment: MST; no 9dG; value from peer review file (main text calls 2-1 slightly weaker); MST: 20 mM HEPES pH 7.5, 75 mM NaCl, 1 mM MgCl2, 0.025% Tween 20, 2 mM DTT, 50 nM Cy5-tRNA, 25 C, +/-100 uM 9dG; EMSA: same buffer without Tween, 100 uM 9dG, 200 nM tRNA, 4 C, 6% native gel; conditions: protein: recombinant;recombinant; copies: 1;1; label: Cy5-cytosine incorporated during transcription (MST); tRNA cloverleaf with intron in anticodon loop
# T1 sequence (Q9JMA2 whole entry, chain 1 of 2): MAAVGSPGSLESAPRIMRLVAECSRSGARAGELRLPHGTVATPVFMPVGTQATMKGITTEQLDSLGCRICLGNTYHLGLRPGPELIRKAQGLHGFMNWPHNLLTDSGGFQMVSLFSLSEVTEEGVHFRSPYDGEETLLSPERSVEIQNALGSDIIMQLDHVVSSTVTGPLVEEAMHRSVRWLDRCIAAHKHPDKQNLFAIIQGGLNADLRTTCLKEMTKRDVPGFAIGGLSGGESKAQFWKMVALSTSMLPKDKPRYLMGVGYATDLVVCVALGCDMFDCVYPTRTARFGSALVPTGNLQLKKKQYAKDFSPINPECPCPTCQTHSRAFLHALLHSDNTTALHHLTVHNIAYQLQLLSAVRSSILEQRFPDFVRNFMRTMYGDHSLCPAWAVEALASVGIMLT
# T1 sequence (B8ZXI1 whole entry, chain 2 of 2): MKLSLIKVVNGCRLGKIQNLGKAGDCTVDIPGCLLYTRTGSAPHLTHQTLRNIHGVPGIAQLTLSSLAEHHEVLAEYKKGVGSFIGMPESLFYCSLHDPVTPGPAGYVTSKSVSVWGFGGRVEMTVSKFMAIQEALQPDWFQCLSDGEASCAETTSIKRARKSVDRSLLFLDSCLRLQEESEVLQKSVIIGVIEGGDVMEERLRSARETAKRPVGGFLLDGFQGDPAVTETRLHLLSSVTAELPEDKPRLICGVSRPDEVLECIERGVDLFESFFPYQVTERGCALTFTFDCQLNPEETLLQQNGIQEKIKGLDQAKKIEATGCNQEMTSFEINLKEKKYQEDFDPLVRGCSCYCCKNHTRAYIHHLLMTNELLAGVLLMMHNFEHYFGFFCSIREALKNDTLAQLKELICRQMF
# [2] = target: T1, QTRT1 (catalytic subunit of TGT);QTRT2 …; experiment: MST; 9-deazaguanine; apparent Kd from peer review file; MST: 20 mM HEPES pH 7.5, 75 mM NaCl, 1 mM MgCl2, 0.025% Tween 20, 2 mM DTT, 50 nM Cy5-tRNA, 25 C, +/-100 uM 9dG; EMSA: same buffer without Tween, 100 uM 9dG, 200 nM tRNA, 4 C, 6% native gel; conditions: protein: recombinant;recombinant; copies: 1;1; label: Cy5-cytosine incorporated during transcription (MST); tRNA cloverleaf with intron in anticodon loop
# [3] = target: T1, QTRT1 (catalytic subunit of TGT);QTRT2 …; experiment: MST; 100 uM 9-deazaguanine; apparent Kd (covalent trapping; review file cites 1.2); MST: 20 mM HEPES pH 7.5, 75 mM NaCl, 1 mM MgCl2, 0.025% Tween 20, 2 mM DTT, 50 nM Cy5-tRNA, 25 C, +/-100 uM 9dG; EMSA: same buffer without Tween, 100 uM 9dG, 200 nM tRNA, 4 C, 6% native gel; conditions: protein: recombinant;recombinant; copies: 1;1; label: Cy5-cytosine incorporated during transcription (MST, EMSA); tRNA cloverleaf
# [4] = target: T1, QTRT1 (catalytic subunit of TGT);QTRT2 …; experiment: MST; no 9dG; MST: 20 mM HEPES pH 7.5, 75 mM NaCl, 1 mM MgCl2, 0.025% Tween 20, 2 mM DTT, 50 nM Cy5-tRNA, 25 C, +/-100 uM 9dG; EMSA: same buffer without Tween, 100 uM 9dG, 200 nM tRNA, 4 C, 6% native gel; conditions: protein: recombinant;recombinant, copies: 1;1, label: Cy5-cytosine incorporated during transcription (MST, EMSA)
# [5] = target: T1, QTRT1 (catalytic subunit of TGT);QTRT2 …; experiment: MST; 100 uM 9-deazaguanine; apparent Kd (covalent trapping); MST: 20 mM HEPES pH 7.5, 75 mM NaCl, 1 mM MgCl2, 0.025% Tween 20, 2 mM DTT, 50 nM Cy5-tRNA, 25 C, +/-100 uM 9dG; EMSA: same buffer without Tween, 100 uM 9dG, 200 nM tRNA, 4 C, 6% native gel; conditions: protein: recombinant;recombinant; copies: 1;1; label: Cy5-cytosine incorporated during transcription (MST, EMSA); tRNA cloverleaf with intron in anticodon loop
binder,measurement,setting,value
"m_pre-tRNATyr 2-1 (intron-containing) (structured_RNA, none (unmodified transcript)) RNA: GGCCUUCGAUAGCUCAGUUGGUAGAGCGGAGGACUGUAGUCAGUACAAUAUGGUAAUCCUUAGGUCGCUGGUUCGAUUCCGGCUCGAAGGA",Kd,[1],2700 nM
same,Kd,[2],1400 nM
"m_tRNATyr (mature, GUA) (structured_RNA, none (unmodified transcript)) RNA: GGCCUUCGAUAGCUCAGUUGGUAGAGCGGAGGACUGUAGAUCCUUAGGUCGCUGGUUCGAAUCCGGCUCGAAGGA",Kd,[3],1100 ± 300 nM
same,Kd,[4]; tRNA cloverleaf,2400 ± 700 nM
"m_pre-tRNATyr 1-4 (intron-containing) (structured_RNA, none (unmodified transcript)) RNA: GGCCUUCGAUAGCUCAGUUGGUAGAGCGGAGGACUGUAGGUCAUUGUUCUAGAAAUCCUUAGGUCGCUGGUUCGAAUCCGGCUCGAAGGA",Kd,[5],2400 ± 200 nM
same,Kd,[4]; tRNA cloverleaf with intron in anticodon loop,6000 ± 700 nM
